{"source": "paper PMC3910272", "about": "“Assay Platform for Clinically Relevant Metallo-β-lactamases” (Journal of Medicinal Chemistry, 2013)", "key": {"SPM-1 [1]": {"target": "T1, SPM-1 (Pseudomonas aeruginosa, UniProt Q8G9Q0)", "T1 sequence (Q8G9Q0 entry or part of it)": "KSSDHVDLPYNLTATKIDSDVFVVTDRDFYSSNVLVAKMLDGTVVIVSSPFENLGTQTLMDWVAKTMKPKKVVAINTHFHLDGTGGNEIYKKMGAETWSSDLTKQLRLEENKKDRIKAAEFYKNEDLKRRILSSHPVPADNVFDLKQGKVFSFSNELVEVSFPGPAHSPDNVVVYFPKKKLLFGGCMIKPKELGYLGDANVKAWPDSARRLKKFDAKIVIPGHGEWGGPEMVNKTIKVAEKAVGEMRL", "test": "SPM-1 inhibition (residual activity, IC50), FC4 as reporter substrate", "format": "biochemical", "description": "To achieve clinical utility, MBL inhibitors may need to act on more than one MBL subfamily. This is potentially challenging because of the generally low sequence similarity between MBLs of different subfamilies (B1, B2, B3). […] This set of compounds was selected as a result of their previously reported inhibition of metal-binding oxygenases.[51] […] In contrast, the compounds derivatized with a Trp, Leu, Asp, or Glu residue inhibited SPM-1, with the tryptophan-functionalized chloroisoquinolinols (S)-7d and (R)-7d giving the most promising results (3% and 8% residual activity (RA) at 200 μM, respectively).\n(§1) Taking into account the aforementioned requirements,\n(§2) absorbance from Greiner Bio-One were used.\n(§3) Determination of the steady state kinetic\n(§4) concentration using the same software.\n(§5) Additional tests verified"}, "Bc II": {"target": "T2, Bc II (Bacillus cereus, UniProt P04190)", "T2 construct": "made in house; host or cells: E. coli BL21(DE3) pLysS", "T2 sequence (P04190 31-257)": "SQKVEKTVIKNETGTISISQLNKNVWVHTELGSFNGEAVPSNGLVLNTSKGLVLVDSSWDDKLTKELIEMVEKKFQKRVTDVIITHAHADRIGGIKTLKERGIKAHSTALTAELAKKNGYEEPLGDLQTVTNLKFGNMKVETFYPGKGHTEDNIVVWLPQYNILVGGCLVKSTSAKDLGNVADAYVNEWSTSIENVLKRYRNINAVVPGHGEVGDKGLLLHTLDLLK", "test": "Bc II inhibition IC50, FC4 as reporter substrate", "format": "biochemical", "description": "as §1, §2, §3, §4, §5"}, "IMP-1": {"target": "IMP-1 (Serratia marcescens, UniProt P52699)", "sequence (P52699 19-246 limits assumed)": "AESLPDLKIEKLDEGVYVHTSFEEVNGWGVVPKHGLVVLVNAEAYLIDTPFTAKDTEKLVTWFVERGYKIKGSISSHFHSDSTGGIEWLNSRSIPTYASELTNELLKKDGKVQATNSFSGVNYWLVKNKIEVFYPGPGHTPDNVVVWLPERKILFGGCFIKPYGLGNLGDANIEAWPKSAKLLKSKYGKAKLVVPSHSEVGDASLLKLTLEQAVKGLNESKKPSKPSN", "test": "biochemical"}, "NDM-1 [2]": {"target": "T3, NDM-1 (Klebsiella pneumoniae, UniProt C7C422)", "T3 sequence (C7C422 29-270 limits assumed)": "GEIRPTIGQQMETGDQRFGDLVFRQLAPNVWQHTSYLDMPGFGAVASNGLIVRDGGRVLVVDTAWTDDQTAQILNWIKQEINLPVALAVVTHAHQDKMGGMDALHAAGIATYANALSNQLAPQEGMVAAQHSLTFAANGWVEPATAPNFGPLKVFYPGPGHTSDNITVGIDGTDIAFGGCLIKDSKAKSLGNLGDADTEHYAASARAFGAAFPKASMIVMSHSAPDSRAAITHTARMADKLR", "test": "biochemical"}, "VIM-2": {"target": "VIM-2 (Escherichia coli, UniProt Q5U7L7)", "test": "biochemical"}, "[3]": {"test": "Autohydrolysis and storage stability of fluorogenic substrates", "format": "physicochemical", "details": "for period of use when stored as solids: solids at −20 °C; for time solutions could be used: solutions stored on ice"}, "SPM-1 [4]": {"target": "T1, SPM-1", "test": "biochemical", "description": "as §1, §2, §3, §4"}, "NDM-1 [5]": {"target": "T3, NDM-1", "format": "biochemical", "set-up": "His-tag (3C protease cleavable) (N, cleaved yes); made in house; host or cells: E. coli BL21(DE3) pLysS", "details": "substrate hydrolysis", "description": "as §1, §2, §3, §4"}, "[6]": {"tested_on": "C[C@@H](O)[C@H]1C(=O)N2C(C(=O)O)=C(SCCN=CN)C[C@H]12", "test": "purified protein, by the assay type", "details": "substrate hydrolysis"}, "[7]": {"tested_on": "O=C(Cc1ccccc1)N[C@@H]1C(=O)N2C(C(=O)O)=C(COc3ccc4ccc(=O)oc4c3)C[S+]([O-])[C@H]12", "test": "purified protein, by the assay type", "details": "substrate hydrolysis"}, "[8]": {"tested_on": "O=C(Cc1cccs1)N[C@@H]1C(=O)N2C(C(=O)O)=C(/C=C/c3ccc([N+](=O)[O-])cc3[N+](=O)[O-])CS[C@H]12", "test": "purified protein, by the assay type", "details": "substrate hydrolysis"}, "[9]": {"tested_on": "O=C(Cc1cccs1)N[C@@H]1C(=O)N2C(C(=O)O)=C(CSc3ccc([N+](=O)[O-])c(C(=O)O)c3)CS[C@H]12", "test": "purified protein, by the assay type", "details": "substrate hydrolysis"}, "[10]": {"tested_on": "[H][C@@]12[C@H](NC(=O)Cc3ccccc3)C(=O)N1C(C(=O)O)=C(COc1ccc3ccc(=O)oc3c1)CS2(=O)=O", "test": "purified protein, by the assay type", "details": "substrate hydrolysis"}, "[11]": {"tested_on": "O=C(Cc1ccccc1)N[C@@H]1C(=O)N2C(C(=O)O)=C(COc3ccc4ccc(=O)oc4c3)CS[C@H]12", "test": "purified protein, by the assay type", "details": "other: NDM-1; substrate hydrolysis"}}, "note": "Marks after values point to notes of the source that are not given here."}
{"compound": "O=C(N[C@H](Cc1c[nH]c2ccccc12)C(=O)O)c1nc(Cl)c2ccccc2c1O", "note": "[(R)-7d]", "values": [{"measurement": "IC50", "setting": "SPM-1 [1]", "result": "46.6 ± 1.1", "unit": "µM"}, {"measurement": "IC50", "setting": "Bc II", "result": "132.4 ± 1.3", "unit": "µM"}, {"measurement": "IC50", "setting": "IMP-1", "result": "74.1 ± 1.6", "unit": "µM"}, {"measurement": "IC50", "setting": "NDM-1 [2]", "result": "47.1 ± 1.1", "unit": "µM"}, {"measurement": "IC50", "setting": "VIM-2", "result": "55.3 ± 1.3", "unit": "µM"}]}
{"compound": "O=C(N[C@@H](Cc1c[nH]c2ccccc12)C(=O)O)c1nc(Cl)c2ccccc2c1O", "note": "[(S)-7d]", "values": [{"measurement": "IC50", "setting": "SPM-1 [1]", "result": "23.2 ± 1.1", "unit": "µM"}, {"measurement": "IC50", "setting": "Bc II", "result": "61.3 ± 1.3", "unit": "µM"}, {"measurement": "IC50", "setting": "IMP-1", "result": "75.6 ± 1.5", "unit": "µM"}, {"measurement": "IC50", "setting": "NDM-1 [2]", "result": "61.4 ± 1.3", "unit": "µM"}, {"measurement": "IC50", "setting": "VIM-2", "result": "54.7 ± 1.4", "unit": "µM"}]}
{"compound": "O=C(Cc1ccccc1)N[C@@H]1C(=O)N2C(C(=O)O)=C(COc3ccc4ccc(=O)oc4c3)CS[C@H]12", "note": "[FC3]", "values": [{"measurement": "autohydrolysis in buffer", "setting": "[3]; buffer, room temperature, after 3 h", "result": "substantial hydrolysis"}]}
{"compound": "O=C(Cc1ccccc1)N[C@@H]1C(=O)N2C(C(=O)O)=C(COc3ccc4ccc(=O)oc4c3)C[S+]([O-])[C@H]12", "note": "(stereo partly drawn) [FC4, (6R,7R)-8-Oxo-3-(((2-oxo-2H-chromen-7-yl)oxy)methyl)-7-(2-phenylacetamido)-5-thia-1-azabicyclo[4.2.0]oct-2-ene-2-carboxylic Acid 5-Oxide]", "values": [{"measurement": "time stable in buffer (autohydrolysis study)", "setting": "[3]; buffer, room temperature", "result": "at least 8 h"}, {"measurement": "period of use when stored as solids", "setting": "[3]", "result": "months"}, {"measurement": "time solutions could be used", "setting": "[3]", "result": "1 to 2", "unit": "days"}]}
{"compound": "O=C(Cc1ccccc1)N[C@@H]1C(=O)N2C(C(=O)O)=C(COc3ccc4ccc(=O)oc4c3)CS(=O)(=O)[C@H]12", "note": "[FC5, (6R,7R)-8-Oxo-3-(((2-oxo-2H-chromen-7-yl)oxy)methyl)-7-(2-phenylacetamido)-5-thia-1-azabicyclo[4.2.0]oct-2-ene-2-carboxylic Acid 5,5-Dioxide]", "values": [{"measurement": "time stable in buffer (autohydrolysis study)", "setting": "[3]; buffer, room temperature", "result": "at least 8 h"}, {"measurement": "period of use when stored as solids", "setting": "[3]", "result": "months"}, {"measurement": "time solutions could be used", "setting": "[3]", "result": "1 to 2", "unit": "days"}]}
{"compound": "O=C(Cc1cccs1)N[C@@H]1C(=O)N2C(C(=O)O)=C(/C=C/c3ccc([N+](=O)[O-])cc3[N+](=O)[O-])CS[C@H]12", "note": "[nitrocefin]", "values": [{"measurement": "Ki", "setting": "SPM-1 [4]; apparent Ki value for substrate/product inhibition, table footnote", "result": 36.6, "unit": "µM"}, {"measurement": "Ki", "setting": "SPM-1 [4]; concentration at which SPM-1 is inhibited by nitrocefin/nitrocefin-derived species, substrate or product inhibition", "result": 36, "unit": "µM"}, {"measurement": "Km", "setting": "NDM-1 [5]", "result": "8.8 ± 1.1", "unit": "µM"}, {"measurement": "kcat", "setting": "NDM-1 [5]", "result": 25.3, "unit": "s^–1"}]}
{"compound": "O=C(O)c1ccc(O)cc1O", "note": "[β-Resorcylic acid, reference compound]", "values": [{"measurement": "RA 1 mM (residual activity on SPM-1)", "setting": "SPM-1 [1]; compound at 1 mM, FC4 reporter substrate, 10 min preincubation", "result": 76, "unit": "%"}]}
{"compound": "BcII (Bacillus cereus)", "values": [{"measurement": "kcat/Km", "setting": "[6]; other: BcII", "result": 400000, "unit": "M⁻¹ s⁻¹"}, {"measurement": "kcat/Km", "setting": "[7]; other: BcII", "result": 700000, "unit": "M⁻¹ s⁻¹"}, {"measurement": "Km", "setting": "[8]; other: BcII", "result": "8.1 ± 1.0", "unit": "µM"}, {"measurement": "kcat", "setting": "[8]; other: BcII", "result": 14.9, "unit": "s⁻¹"}, {"measurement": "kcat/Km", "setting": "[8]; other: BcII", "result": "1.8e+06", "unit": "M⁻¹ s⁻¹"}, {"measurement": "kcat", "setting": "[9]; other: BcII", "result": 8.9, "unit": "s⁻¹"}, {"measurement": "kcat/Km", "setting": "[9]; other: BcII", "result": 60000, "unit": "M⁻¹ s⁻¹"}, {"measurement": "kcat/Km", "setting": "[10]; other: BcII", "result": "3.7e+06", "unit": "M⁻¹ s⁻¹"}]}
{"compound": "IMP-1 (Serratia marcescens)", "values": [{"measurement": "kcat", "setting": "[6]; other: IMP-1", "result": 1200, "unit": "s⁻¹"}, {"measurement": "kcat/Km", "setting": "[6]; other: IMP-1", "result": "2.81e+07", "unit": "M⁻¹ s⁻¹"}, {"measurement": "kcat/Km", "setting": "[7]; other: IMP-1", "result": "8.07e+08", "unit": "M⁻¹ s⁻¹"}, {"measurement": "Km", "setting": "[8]; other: IMP-1", "result": "55.7 ± 4.8", "unit": "µM"}, {"measurement": "kcat", "setting": "[8]; other: IMP-1", "result": 2790, "unit": "s⁻¹"}, {"measurement": "kcat/Km", "setting": "[8]; other: IMP-1", "result": "5.02e+07", "unit": "M⁻¹ s⁻¹"}, {"measurement": "kcat/Km", "setting": "[9]; other: IMP-1", "result": "2.53e+07", "unit": "M⁻¹ s⁻¹"}, {"measurement": "kcat/Km", "setting": "[10]; other: IMP-1", "result": "5.17e+08", "unit": "M⁻¹ s⁻¹"}]}
{"compound": "NDM-1 (Klebsiella pneumoniae)", "values": [{"measurement": "kcat/Km", "setting": "[6]; other: NDM-1", "result": "3.6e+06", "unit": "M⁻¹ s⁻¹"}, {"measurement": "kcat/Km", "setting": "[11]", "result": "5.8e+06", "unit": "M⁻¹ s⁻¹"}, {"measurement": "Km", "setting": "[7]; other: NDM-1", "result": "4.0 ± 0.8", "unit": "µM"}, {"measurement": "kcat/Km", "setting": "[7]; other: NDM-1", "result": "3.2e+07", "unit": "M⁻¹ s⁻¹"}, {"measurement": "Km", "setting": "[10]; other: NDM-1", "result": "2.4 ± 0.2", "unit": "µM"}, {"measurement": "kcat/Km", "setting": "[10]; other: NDM-1", "result": "1.24e+08", "unit": "M⁻¹ s⁻¹"}]}
{"compound": "SPM-1 (Pseudomonas aeruginosa)", "values": [{"measurement": "kcat/Km", "setting": "[6]; other: SPM-1", "result": 100000, "unit": "M⁻¹ s⁻¹"}, {"measurement": "Km", "setting": "[7]; other: SPM-1", "result": "2.5 ± 0.2", "unit": "µM"}, {"measurement": "kcat", "setting": "[7]; other: SPM-1", "result": 8.7, "unit": "s⁻¹"}, {"measurement": "kcat/Km", "setting": "[7]; other: SPM-1", "result": "3.5e+06", "unit": "M⁻¹ s⁻¹"}, {"measurement": "Km", "setting": "[8]; other: SPM-1", "result": "16.0 ± 3.7 ^c μM"}, {"measurement": "kcat", "setting": "[8]; other: SPM-1", "result": 0.7, "unit": "s⁻¹"}, {"measurement": "kcat/Km", "setting": "[8]; other: SPM-1", "result": 40000, "unit": "M⁻¹ s⁻¹"}, {"measurement": "kcat", "setting": "[9]; other: SPM-1", "result": 6.1, "unit": "s⁻¹"}, {"measurement": "kcat/Km", "setting": "[9]; other: SPM-1", "result": 200000, "unit": "M⁻¹ s⁻¹"}, {"measurement": "Km", "setting": "[10]; other: SPM-1", "result": "2.7 ± 0.2", "unit": "µM"}, {"measurement": "kcat/Km", "setting": "[10]; other: SPM-1", "result": "1.03e+07", "unit": "M⁻¹ s⁻¹"}]}
{"compound": "VIM-2 (Escherichia coli)", "values": [{"measurement": "kcat/Km", "setting": "[6]; other: VIM-2", "result": "1.1e+06", "unit": "M⁻¹ s⁻¹"}, {"measurement": "Km", "setting": "[7]; other: VIM-2", "result": "6.3 ± 0.4", "unit": "µM"}, {"measurement": "kcat/Km", "setting": "[7]; other: VIM-2", "result": "2e+07", "unit": "M⁻¹ s⁻¹"}, {"measurement": "Km", "setting": "[8]; other: VIM-2", "result": "7.2 ± 0.6", "unit": "µM"}, {"measurement": "kcat", "setting": "[8]; other: VIM-2", "result": 226, "unit": "s⁻¹"}, {"measurement": "kcat/Km", "setting": "[8]; other: VIM-2", "result": "3.12e+07", "unit": "M⁻¹ s⁻¹"}, {"measurement": "kcat/Km", "setting": "[9]; other: VIM-2", "result": "1.8e+06", "unit": "M⁻¹ s⁻¹"}, {"measurement": "kcat/Km", "setting": "[10]; other: VIM-2", "result": "1.91e+07", "unit": "M⁻¹ s⁻¹"}]}
